# Results as given in patent US20240241124.
# T1: SecV sensor, HiLyte-Fluor 488/QXL520 version (β-sec^V2 strand annealed to ES3) (not fully specified)
# T1 chain: KFEADLNVEKC
# T2: SecV sensor, EDANS/DABCYL version (β-sec^V1 strand annealed to ES3) (not fully specified)
# T2 chain: RKFEADLNVEERC
# B1: recombinant human BACE1 (beta-site APP cleaving enzyme 1), purified enzyme (ab271386, Abcam) (protein)
# chain: TQHGIRLPLRSGLGGAPLGLRLPRETDEEPEEPGRRGSFVEMVDNLRGKSGQGYYVEMTVGSPPQTLNILVDTGSSNFAVGAAPHPFLHRYYQRQLSSTYRDLRKGVYVPYTQGKWEGELGTDLVSIPHGPNVTVRANIAAITESDKFFINGSNWEGILGLAYAEIARPDDSLEPFFDSLVKQTHVPNLFSLQLCGAGFPLNQSEVLASVGGSMIIGGIDHSLYTGSLWYTPIRREWYYEVIIVRVEINGQDLKMDCKEYNYDKSIVDSGTTNLRLPKKVFEAAVKSIKAASSTEKFPDGFWLGEQLVCWQAGTTPWNIFPVISLYLMGEVTNQSFRITILPQQYLRPVEDVATSQDDCYKFAISQSSTGTVMGAVIMEGFYVVFDRARKRIGFAVSACHVHDEFRTAAVEGPFVTLDMEDCGYNIPQTDESTLMT
# Experiments:
# [1] = biological target: T1, SecV sensor, HiLyte-Fluor 488/QXL520 …
# [2] = biological target: T2, SecV sensor, EDANS/DABCYL version …
# [3] = biological target: SecV sensor (version not stated)
protein,measurement,setting,value
B1,"fold change in sensor response (G/R ratio), in vitro BACE1 activity assay",[1],a >1.8-fold response when HyLite-488 and QXL520 were used as a FRET pair
same,"fold change in the signal (G/R ratio), in vitro specificity assay",[1],upon addition of BACE1 the sensor showed a 1.8-fold change in the signal
same,"fold change in sensor response (G/R ratio), in vitro BACE1 activity assay",[2],A >3.0-fold change in sensor response was observed when EDANS and DABCYL were used as a FRET pair
same,lowest amount of BACE1 giving detectable change in sensor signal,[3],The SecV sensor showed detectable changes in signal from 8 ng and remains linear until 80 ng
same,upper end of linear range of sensor signal against amount of BACE1,[3],The SecV sensor showed detectable changes in signal from 8 ng and remains linear until 80 ng
